Target: the molecule itself
Assay: crystal structure; Hg(II)-bound truncated MerR (equimolar HgCl2); sitting-drop vapor diffusion at 16 °C, 0.1 M KCl, 0.01 M MgCl2, 0.1 M Tris pH 8.5, 30% PEG200; space group P3(1)21, one dimer in the asymmetric unit; Hg SAD, 2.8 Å

B1: C-terminal truncated Tn501 MerR (MerRTC10), mercury(II)-bound (domain or fragment, Pseudomonas aeruginosa, UniProt P0A183 1-134, looked up)
chain: MENNLENLTIGVFAKAAGVNVETIRFYQRKGLLLEPDKPYGSIRRYGEADVTRVRFVKSAQRLGFSLDEIAELLRLEDGTHCEEASSLAEHKLKDVREKMADLARMEAVLSELVCACHARRGNVSCPLIASLQG
notes: Mercuric resistance operon regulatory protein MerR of transposon Tn501, Pseudomonas aeruginosa; the last ten C-terminal residues were truncated; synthesized and codon-optimized merR gene; also called Hg2+-MerR; C-terminally truncated Tn501 MerR; source: E. coli BL21 (DE3), pET-30a, purified (HiTrap Phenyl FF, HisTrap HF, Superdex200 gel filtration)
  stoichiometry N: 2
